Data reported in the DeepSol protein solubility set.

Assay: soluble on expression in E. coli; label from the status in PepcDB or PDB records

Sequence	soluble on expression in E. coli
MKIYLMRHTSVLFNGNEHCYGFTDVDVRDTFEEEAAAACARLKGLDPEAVFTSPLQRAAKLAAFCGYPDAIRDDRLKEMNFGDWEGKPWEEILDTTDIEAFFRRYIDEPVSGGESQREQFERVRDFILEKKAAGYRSILIFCHGGVINCARTLVGQCTLESAFASLPPFGSLTELIL	not soluble
MGSDKIHHHHHHMGSTFMGIETGRRALTTNQWALQSTGNNIANAGTAGFSRQRLVMATTEQLSMAIGTGKMGQIGTGVRGEILERVRDVMLDKQYRDEATKTAYYGTKEAAFGRMEDIINEPSDTGLAKAFDGFWESLQTLSTNPQDSGARSVVRQKAETLTQTFNYMSKSLSQVKEDLKSEIDVSTKKVNDLFKKIHNINAEIHTVEPLGVLPNALYDERDRYMDELAQYVDFEKVSVDAEAITQGKLGNATKTAEGRIDILVKLPNGNKLRAVDSDVAQAGILSFTTNDKGLYTGFETNSQTISFDAAGGGFANGRIAGLLEMYGQIKNGQPTGEFVKMQSNLDEMATTFATAFNAAHAANFKKDKTNGTDQFFVATSGSISAATIAVGQDIKGSLDNIATSTDGNIGDSAGALKLAQMKTTSLLFATSVTTTTIGSFYQNVIGDMGVATDQVGRLGQSSAVLMDSAEQRRMSVSAVSIDEEMTMMIQYQHAYNAAARNITTVDEMLDKIINGMGIVGR	not soluble
MTKSLPGVADLRLGANHPRMWTRRVQGTVVNVGVKVLPWIPTPAKRILSAGRSVIIDGNTLDPTLQLMLSTSRIFGVDGLAVDDDIVASRAHMRAICEAMPGPQIHVDVTDLSIPGPAGEIPARHYRPSGGGATPLLVFYHGGGWTLGDLDTHDALCRLTCRDADIQVLSIDYRLAPEHPAPAAVEDAYAAFVWAHEHASDEFGALPGRVAVGGDSAGGNLSAVVCQLARDKARYEGGPTPVLQWLLYPRTDFTAQTRSMGLFGNGFLLTKRDIDWFHTQYLRDSDVDPADPRLSPLLAESLSGLAPALIAVAGFDPLRDEGESYAKALRAAGTAVDLRYLGSLTHGFLNLFQLGGGSAAGTNELISALRAHLSRV	soluble
MRGHHHHHHHGSMTIEFVGVEKIYPGGARSVRGVSFQIREGEMVGLLGPSGSGKTTILRLIAGLERPTKGDVWIGGKRVTDLPPQKRNVGLVFQNYALFQHMTVYDNVSFGLREKRVPKDEMDARVRELLRFMRLESYANRFPHELSGGQQQRVALARALAPRPQVLLFDEPFAAIDTQIRRELRTFVRQVHDEMGVTSVFVTHDQEEALEVADRVLVLHEGNVEQFGTPEEVYEKPGTLFVASFIGESNVWTRAVQNGRIEVAGAALPVDPAVSEGSEVAVVVRPKDVELQPASEREAHAQVVRSAFKGSYSACWIRTKDGEVWEVHVPSADRHRWSPGAWVHMNVTRWFIFPR	soluble
RNDTECDLCGGDPEKKCHSCSCRVCGGKHEPNMQLLCDECNVAYHIYCLNPPLDKVPEEEYWYCPSCKTD	soluble
MAAGSEATTPVIVAAGAGGEEGEHVKPFKPEKAKEIIMSLQQPAIFCNMVFDWPARHWNAKYLSQVLHGKQIRFRMGMKSMSTVPQFETTCNYVEATLEEFLTWNCDQSSISGPFRDYDHSKFWAYADYKYFVSLFEDKTDLFQDVKWSDFGFPGRNGQESTLWIGSLGAHTPCHLDSYGCNLVFQVQGRKRWHLFPPEDTPFLYPTRIPYEESSVFSKINVVNPDLKRFPQFRKAQRHAVTLSPGQVLFVPRHWWHYVESIDPVTVSINSWIELEEDHLARVEEAITRMLVCALKTAENPQNTRAWLNPTEVEETSHAVNCCYLNAAVSAFFDRCRTSEVVEIQALRTDGEHMKKEELNVCNHMEVGQTGSQNLTTGTDKPEAASPFGPDLVPVAQRSEEPPSERGGIFGSDGKDFVDKDGEHFGKLHCAKRQQIMSNSENAIEEQIASNTTTTPQTFISTDDLLDCLVNPQVTRIVAQLLIQGRSL	not soluble
MDAFKRNLEKLAELAIRVGLNLEKGQEVIATAPIEAVDFVRLLAEKAYREGASLFTVIYGDQELARKRLALAPEEGLDKAPAWLYEGMARAFREGAARLAVSGSDPKALEGLPPEKVGRAQKANARAYKPALEAITEFVTNWTIVPFAHPGWARAVFPGLPEEEAVRRLWEAIFQATRADQEDPIAAWEAHNRALHEKVAYLNARRFHALHFKGPGTDLVVGLAEGHLWQGGATATKGGRLCNPNLPTEEVFTAPHRERVEGVVRASRPLALGGTLVEGIFARFERGFAVEVRAEKGEEVLRRLLDTDEGARRLGEVALVPADNPIAKTGLVFFDTLFDENAASHIAFGQAYQENLEGRPSGEAFRKRGGNESLVHVDWMIGSEEMDVDGLYEDGTRTPLMRRGRWVV	soluble
MSLKCETERSKTWNNFGNGIPCVLGIDEAGRGPVLGPMVYAAAISPLDQNVELKNLGVDDSKALNEAKREEIFNKMNEDEDIQQIIAYALRCLSPELISCSMLKRQKYSLNEVSHEAAITLIRDALACNVNVVEIKVDTVGPKATYQAKLEKLFPGISICVTEKADSLFPIVSAASIAAKVTRDSRLRNWQFREKNIKVPDAGYGSGYPGDPNTKKFLQLSVEPVFGFCSLVRSSWKTASTIVEKRCVPGSWEDDEEEGKSQSKRMTSWMVPKNETEVVPKRNVYFKERHMSNILTF	not soluble
MSAGKIDVHGFEKETLFFKNIASGSKGNCTLIWDSTDLIVIDLGITMKKFRDSIKSLDLAGRSISLFISHEHSDHIGGVPTTSKYVDMDVYMRPALSGSFRRKTYEMDGSLVVGNFEIRAFEIPHDAADPVGFSVLWHNRKISVVSDLGKVTDRVIESIRNSDILAFESNHDVEMLRTGSYPEALKRRILSDHGHLSNEQSAEAISRVATDDMRIILTHLSQENNRPEIALNEVKSYLENRNVRYRSIETADQYTGSSLYTLER	not soluble
GMSESNRQRATGLVQAYYEAFNRGDWDAMLAFLAEDVAHDLNQGPREIGRAAFASFLQRMNDSYREQLRDIVVTANDEGTRVGAEYVVHGVYHTTDEGLPDANGQTYVLPGGAFFDVRDGQITRVTNYYNLQEWIAQVSR	soluble
MGSDKIHHHHHHMKCILYKKALPLILLSCLLLGACGNSKNDSVSKEPLSHTSTEKGTWDSAPKVLTPTADGTQTYTCDVASIDASNSGSGYIIVNYHGSNQKVKLQITGPDSVTYTFDLHGGNEVFPLVASSGSYTVTVFENVEGTQYATVLSQVISVSITDEFGPYLYPNQYVNFTADSPAVKEGSSLAYYCSSDTEVVESVYNYIISNFKYDYDKAKNVKSGYLPDVDKVFTENTGICFDYAAVMATMLRTQAIPTRLEVGYAGEEYHAWISTYIKDKGWINGIIEFDGTSWNMLDPTFASTSDSPKKFIAQKSDYITKYVY	not soluble
MANMLKIAMLSTGEEVLHGDIVDSNAAWLAREFYQHGFSLAKRATVGDSLPALVEELMMLSFNSDVVIVNGGLGPTSDDITAQAAAQAAEQPLVLNADWLSQLEAFFIGRGRAMPESNRKQAMLPANAEVIDNPIGTACGFKMQINDCWFYFTPGVPKEFYKMVSEQILPNLQRQFPSVQGQQCSRLYTFGTSESSISDKLDKMHLPEGYTLGYRSYLPFIEVKLFGPDQDQERRLSLLKIIHSHLEQYVVSIDEPMLTYLGHVMAEKGLSLALAEQATQGGLSSWLLSDPNVEALAGHSWILSHRVSSELAHQDPLAAAFALAGATKDKCGTQMALVTGALKEDHVSVALSTPNGEWGQTVKFVRRFSAQEQKEWIATLAADMLLRYLTGRSMFVGYSAVERVKEMHLPSSVLN	not soluble
MSLNGLKRGFPVMKEQIGGKLICISGIPGTGKSTICNLLNDLGYTCVEGNALAVKYGCLSGDEVDVDCLSDRMRSDNFKGIVAAHYAHLLPCNIVIILEADESALRQRMMDRGYSPEKIDENLDAQRSDTIYAESLERLPANRIFRIRNADLNVALSDILRIIGGRNEGHHHHHH	soluble
MSLDGIIPVVEKKDFLRWFLKEFTLKKRECSWLLNYLMSDDDLMENVHFVEEAERCPKALIMSTNDVHTVPFCFHKYQQVTMDAEKAFHDIRMNPEEAIYIQLHFSGAKHNPNYIAVLEDNPYVPENEDLIAKQKKLAEAFLERSVQSFEEKELLRRIDEALDARDKETFLTLSQQLQHLRQHSDEGHHHHHH	soluble
MSSTKQKALKKIAKCLELGNSANVNEAAQAIKMAHRLMLKYGLEKDDIEFIKMGKTQSIHLLPANVGSNILKIIRGINTRFGVEAVLLNHKGLKKVEFIGSADRAIFAAFAFDIVYREMNEQTGQFKNSFAGTGTGQLEVTKRVNSFLAGWIEGALEKLPVIAPDEDSANKINDYIDKEFKNIDRETFKQQLKEAMANITADYEKGLKKGRTISVNRPVAGAQAPKLLK	not soluble
MITTPNISLTPTVAPPVDFPIIGNCDFQAQLWHLMSLHLQMQKSSAASTSSSSSSSTSSENLKKSPSSVQNTSVFSIDNILNSQKVPKLELENDEDVSSSPSPTCSTTGYTLDSLQNLDRRSLNKKGPSSHNRCVCDKCGKSYATTSNLSRHKQTHRALDSPHAKQCPHCDRVYVSMPALSMHILTHNASHECNVCGKRFSRLWLLQGHLRSHTGLRPFSCAHCGKSFADRSNLRAHMLTHTGDKRFECDKCGRRFALRAYLNRHLETCK	not soluble
EYGYEDLRESSNSLLNHQLSEIDQARLYSCLDHMREVLGDAVPDDILTEAILKHKFDVQKALSVVLEQDG	soluble
MGHHHHHHSHMTNQNVLLNISGVKFVLRIPNAVNLSLINREYEAFNNAQAYRAGLNVETPVLDAKSGVKLTRYLENSNTLSQIQLNEQSCLSQVVNNLYRLHNSEFVFRNVFSVFDEFRQYFSLLENKSAFYQADSRMDKLSAVFWQFEEINKEVILRPCHNDLVPENMLLQDDRLFFIDWEYSGLNDPLFDIATIIEEAHLSKEAADFLLETYCNQTNKYHKTEFQIAHKRLKIHRFCQNVLWFLWTKVKEEHGENFGDYALKRLDAAFKLLEELP	soluble
MSEKFEHYYTVEPTSKLKVREARLVLKNGHEYIFKTPSGVYSYGKIDKATQVLLENLKVHGKKVLDLGCGYGVIGIVLKKEYPDLEVYMSDINKRAVEFAKINAKDHNVEVDIRWGNLYEPWEDMKFDMIVCNPPIVAGKKVWMEIVKSAPEFLEEGGSLQIVAYHNKGGRRIRDFMKEVFGNVEELCKTGGIRVYRSVKGLKEDEDNAE	not soluble
MGSDKIHHHHHHLSREARYLEEARGFYQSGKFSSAGIYARKVIRREPSNGEAQALLGHLAFRSGEHQEAMSCYLKAQAAGFQDQELRLNLVTLHERREAFFDAVNLLRELVEETPQDLSLQLRLGINASRTGDMTTAESALLAALAGDEQAAQASLNLGHVYKAKGDTDKAAAFYHDYIRLAPSQQATAYWSLADLKNYRFTEQDEAALKANIAAEEFSQASQSLFHFALNRVYEQRKQGEQAFDAVRMANQLMRPLRPFKREAFTRLVDSLKSAEVKPRGEETSGPWTPIFIVGMPRSGTTLCEQILASHSQIAATDELPFMERLALSLEMKGGYGAMLPRLSEEQIAQMRQQYIEQVNQYLKAQGEASPSLVPSLVIDKNPNNFIHIGLIKTLFPEAKIINVIRDARDNAMGVYKQHFSHGHDYSYHLDDICHYWQLYLELMAHWQQAYGDSLYHLCFEQLVKAPDQQIPAMVDYVGLALEPACLKFYESKRSVLTPSASQVRRPMNVKAIGQSEAYAAFIPNAYRTLTVIADRAHKSFLS	not soluble
MGSDKIHHHHHHMSTEPLASRMRPKNIDEIISQQHLVGPKGIIRRMVDTKKLTSMIFYGPPGIGKTSIAKAISGSTQYKFRQLNAVTNTKKDMQLVVEEAKMSGQVILLLDEIHRLDKAKQDFLLPHLENGKIVLIGATTSNPYHAINPAIRSRAQIFELYPLNDEDVRQALTRAIEDDENGLKTYQPKIDEDAMTYFSTQSQGDVRSALNALELAVLSADNDKDGYRHVTLQDAKDCLQKGAFVSDKDGDMHYDVMSAFQKSIRGSDVNAALHYLARLIEAGDLPTIVRRLLVISYEDIGLASPNAGQRTLAAIESAERLGLPEARIPLSQAVIELCLSPKSNSAMSAIDSALSDIRNGHVGQIPNHLKDGHYQGAKDLGRSIGYKYPHQYVNGYVSQQYLPDKLKNKIYYEPKTTSKSEQQLKEIYNNLLKQRP	not soluble
